In US20150267232A1, “IN VIVO AND IN VITRO CARBENE INSERTION AND NITRENE TRANSFER REACTIONS CATALYZED BY HEME ENZYMES” (California Institute of Technology, priority 2012, published 2015):

Columns and labels:
Assay type in all cases: biochemical
[1] = Intramolecular carbene C—H insertion, substrate 4.1b; details: 10 mM 4.1b, 10 uM P450, 10 mM Na2S2O4; product 4.2b
Procedure: (§1) Yield of product 4.22b was established after calibration with phenethyl alcohol as an internal standard. The reaction is not catalyzed by the WT-BM3 heme domain or hemin at 5% catalyst loading.
(§2) A representative procedure for P450-catalyzed C—H insertion is as follows: A vial containing WT-AxD (20 μL, 200 μM) was sealed with a teflon cap and the headspace of this vial was purged with argon for 5 min. Concurrently, a solution of sodium dithionite (11 mM in phosphate buffer pH=8) was degassed for a minimum of 5 min and 360 μL of this solution was transferred to the vial containing protein. The gas lines were disconnected from the vials. The substrate 4.1a or 4.1b was then added as a solution (20 μL, 200 mM). Final concentrations of all components were: 10 uM enzyme, 10 mM substrate, and 10 mM dithionite. The reaction vials were then placed in a tray on a plate shaker and left to shake at 40 rpm for 12 h then 20 μL phenethyl alcohol (20 mM) was added as an internal standard.
(§3) The mixture was extracted with 1 mL cyclohexane and analyzed by GC-MS or GC. GC-MS was performed on a Shimadzu TQ8030 GC-MS with ion count detector and J&W HP-5 column (30 m×0.32 mm, 0.25 μm film) using the following method: 90° C. (hold 2 min), 90-190° C. (20° C./min), and 190-230 (40° C./min)

[2] = Intramolecular carbene C—H insertion, substrate 4.1a
Procedure: as §1
as §2, with “The reaction vials were then placed in a tray on a plate shaker and left to shake at 40 rpm for 12 h then 20 μL phenethyl alcohol (20 mM) was added as an internal standard.” left out
as §3

[3] = N—H insertion, aniline with ethyl 2-diazopropanoate; details: protein 20 μM, diazo 10.0 mM, aniline 20 mM
Procedure: The reactions shown in FIG. 37A were carried out with protein (20 μM), ethyl diazo acetate (8.5 mM), aniline (20 mM) and Na2S2O4 (10 mM) in phosphate buffer (pH 8) and allowed to shake at room temperature for 12 h. Yields are reported in parenthesis and TTN are presented in italics. Yields were determined by GC calibrated for each product. An isolated yield of 65% for compound 4.3 was determined for the milligram scale reaction run as follows: 25 mM EDA, 25 mM aniline, 25 μM protein, and 25 mM Na2S2O4. The reaction producing compounds 4.5 and 4.10 were carried out with protein (20 μM), ethyl diazo acetate (10.0 mM), aniline (20 mM) and Na2S2O4 (10 mM).
While substituted diazo compounds can also be used for insertion, the yield from N—H insertion of ethyl 2-diazopropanoate into aniline is only 26% (product 4.5). To improve efficiency of this reaction, we examined the reaction of ethyl 2-diazopropanoate with a variety of axial mutants. In particular, the axial mutant WT-AxA provided the desired product in 83% yield, compared to 8% yield and 1.7% yield with axial mutant WT-AxS and WT-BM3 heme domain, respectively (FIG. 37B).
The reactions shown in FIG. 37B were carried out with 10 μM catalyst loading, 20 mM aniline, 10 mM Na2S2O4 and 10 mM ethyl 2-diazopropanoate as described above. For the final entry in FIG. 37B, whole cells expressing BM3-CIS-T438S at 2.5 μM were used. See, U.S. Provisional Application No. 61/711,640 for the procedure for catalysis with whole cells.

[4] = P450BM3 compilation plate screen (GC, cyclopropane peaks); details: P450BM3 variants
[5] = N—H insertion, aniline with ethyl diazo acetate (EDA)
From the text: We have found a variety of P450 variants to be general catalysts for carbenoid N—H insertion. We combined aniline with EDA in the presence of a reductant (Na2S2O4) under argon atmosphere and tested the mixture with seven P450BM3 variants previously identified as competent catalysts for cyclopropanation (Coelho, P. et al., Science. 2013, 339, 307-310). In choosing this set of P450s, we hypothesized that cyclopropanation activity could correlate with ability to generate the iron-carbenoid intermediate that is also necessary for N—H insertion. Whereas wild type BM3 (WT-BM3 (SEQ ID NO:1), Table 20, entry 1) provided only trace amounts of the desired product (4.3), a few variants gave 4.3 in good yields after 12 h at room temperature. In particular, variant H2-5-F10 which is derived from a thermostable P450BM3 lineage (Lewis, J. C. et al. ChemBioChem, 2010, 11, 2502-2505) and contains 15 mutation from WT-BM3 (SEQ ID NO:1), formed 4.3 in 47% yield and 473 turnovers (TTN) using 0.1% protein relative to EDA (entry 7). […] In contrast, when 1 mol % of the isolated hemin prosthetic group was used as catalyst, the single and double insertion products were produced in a 3.5 to 1 ratio (with a total product yield of 51%).
A representative procedure for P450-catalyzed N—H insertion is as follows. To an unsealed crimp vial, 60 μL of a P450 solution (67 or 133 μM) was added and the vial was sealed. A 12.5 mM solution of sodium dithionite in phosphate buffer (0.1 M, pH=8.0) was degassed by bubbling with argon in a 6 mL crimp-sealed vial. The headspace of the 2 mL vials containing P450 solution were flushed with argon (no bubbling). The buffer/dithionite solution (360 μL) was then added to each reaction vial via syringe, and the gas lines were disconnected from the vials. 10 μL of an 800 mM stock of aniline was added via a glass syringe, followed by 10 μL of a 340 mM stock of EDA (both stocks in MeOH). The reaction vials were then placed in a tray on a plate shaker and left to shake at 40 rpm. The final concentrations of the reagents were typically: 20 mM aniline, 8.5 mM EDA, 10 mM Na2S2O4, and 10 or 20 μM P450. After 12 h at 25° C., the vials were removed from the shaker and uncapped and 1 mL of cyclohexane was added, followed by 20 μL of a 20 mM solution of phenethyl alcohol (internal standard). The mixture was transferred to a 1.5 mL Eppendorf tube and vortexed and centrifuged (13,000×g, 1 min.). The organic layer was dried over sodium sulfate if necessary then analyzed by GC, with comparison to an authentically prepared sample that has been verified by proton NMR ([…], Varian, CDCl3).
Substitution is well-tolerated on the aniline partner on both the ortho and para positions. Reactions were analyzed by a Shimadzu GC with FID detector and J&W HP-5 column (30 m×0.32 mm, 0.25 μm film) and calibrated to an independently prepared sample of each product using phenethyl alcohol as internal standard. Reaction of aniline and EDA was also performed in milligram scale without any organic cosolvent to provide 4.3 in 65% isolated yield.
Calibration curves were plotted as follows. Yields of N—H insertion products were determined using calibration curves made with independently synthesized standards that have been verified by proton NMR, with comparison to known literature data (Baumann, L. K. et al. Organometallics. 2007, 26, 3995-4002; Anding, B. J. et al. Organometallics. 2013, 32, 2599-2607). Two stock solutions of product were made at 160 mM and 40 mM. To four or five samples containing 380 μL of buffer, product was added from either of the stock solutions such at a final concentration of 0.5-8.0 mM in 400 μL was obtained. 20 μL of internal standard was added to each eppendorf tube, then 1 mL of cyclohexane was added and the tubes were vortexed and centrifuged (13,000 ×g, 30 seconds). The organic layer was then analyzed by GC. The ratio of the areas under the internal standard and product peaks were plotted against the concentration for each solution. […]

[6] = N—H insertion, diethyl amine and 4.11 (lidocaine synthesis); details: GC-MS
Procedure: Diazo amides are also competent substrates for this reaction, and alpha-amino amides like 4.10 (FIG. 37A) can be produced in moderate yields. This transformation is particularly valuable because diazo amides can give rise to important building block compounds like diamines Additionally, this transformation can be used for the synthesis of lidocaine, which we were able to prepare using diethyl amine and 4.11 in the presence of H2-5-F10 (Scheme 1). […] (hold 1 min), 100-140° C. (6° C./min), 140-260° C. (20° C./min), 260° C. (hold 3 min)

Molecule | Yield % [1] | Yield % ([2]; 10 mM 4.1a, 10 uM P450, 10 mM Na2S2O4, product 4.2a) | lactone formation via C—H bond insertion ([2]; substrates 4.1a and 4.1b, 10 μM variant or hemin at 5% catalyst loading, 16 h) | yield of product 4.5 [3] | ee (cis) ([4]; (R,S)-(S,R), chiral β-CDX GC) | de ([4]; diastereomeric excess = ([cis] − [trans])/([cis] + [trans])) | Absolute activity ([4]; sum of the area of the cyclopropane peaks over the area of the internal standard) | double insertion product ([5]; GC-MS and 1H NMR, milligram-scale reactions) | isolated yield of 4.3 ([5]; milligram scale, 25 mM EDA, 25 mM aniline, 25 μM protein, 25 mM Na2S2O4, no organic cosolvent) | TTn ([5]; protein 10 uM, EDA 8.5 mM, aniline 20 mM, Na2S2O4 10 mM, 12 h) | % Yield ([5]; protein 10 uM, EDA 8.5 mM, aniline 20 mM, Na2S2O4 10 mM, 12 h, product 4.3) | production of lidocaine [6]
WT-AxD: WT heme domain + C400D (protein, synthetic cytochrome P450-BM3 variant WT-AxD (heme), WT heme domain + C400D) TIKEMPQPKTFGELKNLPLLNTDKPVQALMKIADELGEIFKFEAPGRVTRYLSSQRLIKEACDESRFDKNLSQALKFVRDFAGDGLFTSWTHEKNWKKAHNILLPSFSQQAMKGYHAMMVDIAVQLVQKWERLNADEHIEVPEDMTRLTLDTIGLCGFNYRFNSFYRDQPHPFITSMVRALDEAMNKLQRANPDDPAYDENKRQFQEDIKVMNDLVDKIIADRKASGEQSDDLLTHMLNGKDPETGEPLDDENIRYQIITFLIAGHETTSGLLSFALYFLVKNPHVLQKAAEEAARVLVDPVPSYKQVKQLKYVGMVLNEALRLWPTAPAFSLYAKEDTVLGGEYPLEKGDELMVLIPQLHRDKTIWGDDVEEFRPERFENPSAIPQHAFKPFGNGQRADIGQQFALHEATLVLGMMLKHFDFEDHTNYELDIKETLSLKPKGFVVKAKSKKIPLGGIPSPST | 4% | 14% | lactone formation | – | – | – | – | – | – | – | – | –
H2-5-F10: 9-10A TS + F87V, L75A, I263A, T268A, L437A (protein, listed as Bacillus megaterium, cytochrome P450NADPH-P-450 reductase precursor, cytochrome P450 (BM3), CYP102A1, 9-10A TS + F87V, L75A, I263A, T268A, L437A) TIKEMPQPKTFGELKNLPLLNTDKPVQALMKIADELGEIFKFEAPGRVTRYLSSQRLIKEACDESRFDKNLSQAAKFARDFAGDGLVTSWTHEKNWKKAHNILLPSFSQQAMKGYHAMMVDIAVQLVQKWERLNADEHIEVSEDMTRLTLDTIGLCGFNYRFNSFYRDQPHPFIISMVRALDEVMNKLQRANPDDPAYDENKRQFQEDIKVMNDLVDKIIADRKARGEQSDDLLTQMLNGKDPETGEPLDDGNIRYQIITFLAAGHEATSGLLSFALYFLVKNPHVLQKVAEEAARVLVDPVPSYKQVKQLKYVGMVLNEALRLWPTAPAFSLYAKEDTVLGGEYPLEKGDEVMVLIPQLHRDKTVWGDDVEEFRPERFENPSAIPQHAFKPFGNGQRACIGQQFALHEATLVLGMMLKHFDFEDHTNYELDIKETATLKPKGFVVKAKSKKIPLGGIPSPSTEQSAKKVRKKAENAHNTPLLVLYGSNMGTAEGTARDLADIAMSKGFAPQVATLDSHAGNLPREGAVLIVTASYNGHPPDNAKQFVDWLDQASADEVKGVRYSVFGCGDKNWATTYQKVPAFIDETLAAKGAENIADRGEADASDDFEGTYEEWREHMWSDVAAYFNLDIENSEDNKSTLSLQFVDSAADMPLAKMHGAFSTNVVASKELQQPGSARSTRHLEIELPKEASYQEGDHLGVIPRNYEGIVNRVTARFGLDASQQIRLEAEEEKLAHLPLAKTVSVEELLQYVELQDPVTRTQLRAMAAKTVCPPHKVELEALLEKQAYKEQVLAKRLTMLELLEKYPACEMKFSEFIALLPSIRPRYYSISSSPRVDEKQASITVSVVSGEAWSGYGEYKGIASNYLAELQEGDTITCFISTPQSEFTLPKDPETPLIMVGPGTGVAPFRGFVQARKQLKEQGQSLGEAHLYFGCRSPHEDYLYQEELENAQSEGIITLHTAFSRMPNQPKTYVQHVMEQDGKKLIELLDQGAHFYICGDGSQMAPAVEATLMKSYADVHQVSEADARLWLQQLEEKGRYAKDVWAG | – | – | – | 26% | −56 | −46 | 0.1412 | No double insertion product was observed | 65% | 473 | 47% | Production of lidocaine was observed
